Measurements published in patent US20240175877A1.

Target: Ara h 2 (peanut) (UniProt Q6PSU2)
Experiment: SPR, Biacore 3000

Chain of Ara h 2 (peanut) (Q6PSU2 23-172): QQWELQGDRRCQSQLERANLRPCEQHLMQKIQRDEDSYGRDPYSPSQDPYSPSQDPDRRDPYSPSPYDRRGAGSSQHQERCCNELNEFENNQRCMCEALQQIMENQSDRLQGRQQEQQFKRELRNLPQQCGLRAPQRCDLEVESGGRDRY

Kd: 4.85 nM
B1: 13BU2T1 (antibody, IgG1, V domains shown)
VH: VESGGGVVQPGASLRLSCVASGFTFRDYSMHWVRQAPGKGLEWMSFIRFDGTTKDYRESVKGRFIISRDDSKNTLYLQMTSLRPEDTARYYCVKDNGWRAFDHWGQGALVIVSS
VL: EIVMTQSPLSLPVTPGEAASISCRSSQSLLHRNGYIYLDWYLQRPGQSPQLLISFVSKRASGAPDRFSGSGSGTDFTLTISRVEAEDFGVYFCMQSLENPWTFGP
